From publication doi:10.1101/2025.09.02.673761 (bioRxiv, 2025)

Target: GFP-tagged holo-CPC (Chromosomal Passenger Complex: INCENP, GFP-Aurora B, Borealin, Survivin) (human, UniProt Q9NQS7;Q96GD4;Q53HL2;O15392)
Experiment: pull-down

Chain of GFP-tagged holo-CPC (Chromosomal Passenger Complex: INCENP, GFP-Aurora B, Borealin, Survivin) (Q9NQS7 whole entry, chain 1 of 4): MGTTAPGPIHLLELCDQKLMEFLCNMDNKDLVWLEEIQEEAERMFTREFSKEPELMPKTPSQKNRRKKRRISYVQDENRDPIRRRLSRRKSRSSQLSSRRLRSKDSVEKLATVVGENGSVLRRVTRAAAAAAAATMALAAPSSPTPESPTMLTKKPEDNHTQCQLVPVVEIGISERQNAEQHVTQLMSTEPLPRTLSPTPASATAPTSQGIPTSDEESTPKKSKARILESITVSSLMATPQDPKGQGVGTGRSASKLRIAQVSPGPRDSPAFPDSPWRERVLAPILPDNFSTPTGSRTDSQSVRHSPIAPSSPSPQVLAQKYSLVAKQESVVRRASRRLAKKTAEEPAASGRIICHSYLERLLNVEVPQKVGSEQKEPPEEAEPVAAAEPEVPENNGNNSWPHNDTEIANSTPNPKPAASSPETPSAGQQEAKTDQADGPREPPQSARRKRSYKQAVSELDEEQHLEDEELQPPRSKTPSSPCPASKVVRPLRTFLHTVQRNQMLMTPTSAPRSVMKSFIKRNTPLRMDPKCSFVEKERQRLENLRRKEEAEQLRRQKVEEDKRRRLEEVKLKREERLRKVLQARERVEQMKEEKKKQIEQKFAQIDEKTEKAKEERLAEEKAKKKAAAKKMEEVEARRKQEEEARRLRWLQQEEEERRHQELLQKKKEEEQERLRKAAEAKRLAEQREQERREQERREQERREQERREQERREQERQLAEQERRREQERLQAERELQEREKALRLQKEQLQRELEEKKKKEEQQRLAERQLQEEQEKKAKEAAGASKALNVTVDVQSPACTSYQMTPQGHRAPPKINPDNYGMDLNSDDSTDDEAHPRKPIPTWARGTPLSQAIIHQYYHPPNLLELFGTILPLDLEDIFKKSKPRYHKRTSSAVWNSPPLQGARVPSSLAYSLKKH
Chain of GFP-tagged holo-CPC (Chromosomal Passenger Complex: INCENP, GFP-Aurora B, Borealin, Survivin) (Q96GD4 whole entry, chain 2 of 4): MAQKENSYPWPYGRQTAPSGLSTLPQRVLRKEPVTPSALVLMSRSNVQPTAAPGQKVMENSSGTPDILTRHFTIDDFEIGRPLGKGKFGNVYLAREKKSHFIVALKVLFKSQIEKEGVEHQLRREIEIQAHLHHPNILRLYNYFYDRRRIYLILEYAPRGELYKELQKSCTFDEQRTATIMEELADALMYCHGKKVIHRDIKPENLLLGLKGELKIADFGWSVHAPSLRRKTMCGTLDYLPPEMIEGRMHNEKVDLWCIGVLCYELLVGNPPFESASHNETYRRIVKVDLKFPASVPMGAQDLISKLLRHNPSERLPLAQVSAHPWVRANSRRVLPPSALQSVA
Chain of GFP-tagged holo-CPC (Chromosomal Passenger Complex: INCENP, GFP-Aurora B, Borealin, Survivin) (Q53HL2 whole entry, chain 3 of 4): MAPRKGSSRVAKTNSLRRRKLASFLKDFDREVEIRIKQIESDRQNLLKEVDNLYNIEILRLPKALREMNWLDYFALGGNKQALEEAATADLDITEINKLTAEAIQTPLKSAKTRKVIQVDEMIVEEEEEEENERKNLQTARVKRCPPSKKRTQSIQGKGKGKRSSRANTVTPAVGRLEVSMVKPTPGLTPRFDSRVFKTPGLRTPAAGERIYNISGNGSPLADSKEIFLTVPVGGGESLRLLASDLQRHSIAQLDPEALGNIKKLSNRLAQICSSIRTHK
Chain of GFP-tagged holo-CPC (Chromosomal Passenger Complex: INCENP, GFP-Aurora B, Borealin, Survivin) (O15392 whole entry, chain 4 of 4): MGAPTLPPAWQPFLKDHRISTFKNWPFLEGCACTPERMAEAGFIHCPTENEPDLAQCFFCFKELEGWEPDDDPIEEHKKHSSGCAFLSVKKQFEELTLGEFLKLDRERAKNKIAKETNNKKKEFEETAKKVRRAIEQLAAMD

B1: KIF20A (kinesin-6 motor), unlabeled (natural protein)
chain: MSQGILSPPAGLLSDDDVVVSPMFESTAADLGSVVRKNLLSDCSVVSTSLEDKQQVPSEDSMEKVKVYLRVRPLLPSELERQEDQGCVRIENVETLVLQAPKDSFALKSNERGIGQATHRFTFSQIFGPEVGQASFFNLTVKEMVKDVLKGQNWLIYTYGVTNSGKTHTIQGTIKDGGILPRSLALIFNSLQGQLHPTPDLKPLLSNEVIWLDSKQIRQEEMKKLSLLNGGLQEEELSTSLKRSVYIESRIGTSTSFDSGIAGLSSISQCTSSSQLDETSHRWAQPDTAPLPVPANIRFSIWISFFEIYNELLYDLLEPPSQQRKRQTLRLCEDQNGNPYVKDLNWIHVQDAEEAWKLLKVGRKNQSFASTHLNQNSSRSHSIFSIRILHLQGEGDIVPKISELSLCDLAGSERCKDQKSGERLKEAGNINTSLHTLGRCIAALRQNQQNRSKQNLVPFRDSKLTRVFQGFFTGRGRSCMIVNVNPCASTYDETLHVAKFSAIASQLVHAPPMQLGFPSLHSFIKEHSLQVSPSLEKGAKADTGLDDDIENEADISMYGKEELLQVVEAMKTLLLKERQEKLQLEMHLRDEICNEMVEQMQQREQWCSEHLDTQKELLEEMYEEKLNILKESLTSFYQEEIQERDEKIEELEALLQEARQQSVAHQQSGSELALRRSQRLAASASTQQLQEVKAKLQQCKAELNSTTEELHKYQKMLEPPPSAKPFTIDVDKKLEEGQKNIRLLRTELQKLGESLQSAERACCHSTGAGKLRQALTTCDDILIKQDQTLAELQNNMVLVKLDLRKKAACIAEQYHTVLKLQGQVSAKKRLGTNQENQQPNQQPPGKKPFLRNLLPRTPTCQSSTDCSPYARILRSRRSPLLKSGPFGKKY
**Q.** Does B1 bind?
**A.** binds
